Measurements: the supplement of paper PMC10567573

B1: PHTF1 (parent)
chain: RVKLISNKGTETDNDPSCVHPIIK
B2: SNX8 (parent)
chain: RMVPALPPKRMLGADREFIEARRR

Variants of: B1
Test: protein stability index of a GFP-peptide fusion (GPS, HEK-293T) (PSI 1-6); higher = more stable
Settings: c terminus: a fixed tail appended
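Also: lentivirally expressed fusions sorted by FACS into six bins by GFP to DsRed ratio, PSI derived from sequencing read proportions per bin multiplied by bin number.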

Protein stability index, by site and new letter:
N7: V 3.77, W 3.1, Y 3.32, M 3.36
S6: V 3.52, P 4.17, F 2.77, R 3.62, A 4, C 3.76, T 3.95, M 3.14, Q 4.26, D 4.49, E 3.85, L 2.97, I 3.23, K 4.36, G 4.38, H 4.03, N 4.26, Y 3.34, W 2.86
T10: I 3.74, V 3.38, N 4.2, G 4.01, E 4.26, S 3.88, M 3.98, R 3.91, A 4.2, P 4.29, H 4.52, D 4.1, F 3.1, Y 3.94, W 2.66, L 3.38, K 3.95, Q 4.51, C 3.8
D13: V 3.5, N 3.68, A 3.72, R 3.76, F 2.96, T 3.76, Y 2.74, S 3.85, E 4.21, L 3.4, P 3.26, C 3.21, I 3.24, Q 3.9, W 2.48, K 3.74, M 3.48, H 3.51, G 3.89
N14: P 4.3, M 3.6, Q 4.29, H 3.82, T 4.16, F 3.06, R 3.71, L 3.48, I 3.06, S 4.56, C 3.72, E 4.53, Y 3.73, D 4.04, V 4.26, W 2.65, A 4.25, K 3.65, G 3.83
L4: F 3.9, Q 5.02, M 4.13, I 4.19, P 4.82, K 4.43, A 4.57, W 4.24, T 4.84, N 4.48, V 3.86, S 4.61, C 4.48, E 5.13, D 4.18, Y 3.77, G 4.44, R 4.25, H 4.27
T12: K 4.49, I 3.86, V 4.01, C 3.87, S 4.09, P 4.29, M 3.44, H 4.24, D 4.31, A 4.11, G 4.14, Q 4.18, L 3.61, E 4.53, W 3.11, N 4.26, Y 3.25, R 3.95, F 3.67
V2: T 4.35, F 3.26, A 4.41, Q 4.65, S 4.44, M 3.97, K 4.6, W 3.61, G 3.52, I 4.18, R 4.45, C 4.02, Y 3.54, P 4.68, D 4.54, N 4.5, E 4.78, H 4.2, L 4.19

Variants of: B2
Test: as above
Settings: c terminus: a fixed tail appended

Protein stability index, by site and new letter:
R23: S 3.56, W 1.28, K 4.02, Y 2.97, T 3.56, N 3.94, Q 3.11, M 2.4, V 3.4, L 3.65, P 3.66
R24: L 2.92, D 4, T 3.95, P 3.53, G 3.94, F 3.2, I 3.11, E 4.23, K 3.74, C 3.53, S 3.46, M 2.96, V 3.31, W 3.05, N 3.66, H 3.83, A 4, Y 2.38, Q 3.52
